Measurements: patent US20240141039A1 (AGENUS, published 2024)
Read-outs that look alike come from different tables or passages of the source. Values belong to the binder of their own block, whether it stands above or below them.

Key:
[1] = target: T1, full-length isoform 2 ECD of cynomolgus monkey CD96 (His-tagged) (cynomolgus monkey); test: SPR Biacore T200, geomean of experiments #1 and #2
T1 construct: also called His-tagged isoform 2 of cynomolgus monkey CD96; cyno CD96 extracellular domain isoform 2
T1 chain: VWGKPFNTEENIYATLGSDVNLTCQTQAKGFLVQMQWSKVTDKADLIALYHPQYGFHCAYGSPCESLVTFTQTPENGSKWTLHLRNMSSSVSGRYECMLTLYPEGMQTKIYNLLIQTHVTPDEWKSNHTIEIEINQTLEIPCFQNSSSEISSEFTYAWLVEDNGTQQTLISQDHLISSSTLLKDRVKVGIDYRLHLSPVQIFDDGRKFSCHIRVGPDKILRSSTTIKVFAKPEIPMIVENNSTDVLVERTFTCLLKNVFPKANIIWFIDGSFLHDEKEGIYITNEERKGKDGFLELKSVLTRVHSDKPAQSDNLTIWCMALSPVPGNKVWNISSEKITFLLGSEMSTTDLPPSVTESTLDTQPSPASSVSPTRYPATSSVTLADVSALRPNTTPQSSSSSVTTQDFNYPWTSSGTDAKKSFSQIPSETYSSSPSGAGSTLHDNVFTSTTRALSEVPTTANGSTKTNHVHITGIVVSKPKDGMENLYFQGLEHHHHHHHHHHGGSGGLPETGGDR
Method: (§1) Briefly, surface plasmon resonance experiments were performed using a Biacore T200 instrument, and the association rate (kₐ), dissociation rate (kd), and dissociation constant (KD) were calculated from each experiment using a 1:1 binding model with Biacore T200 Evaluation Software.
(§2) Multispecific molecules were captured using a 30-sec injection at a flow rate of 10 μl/min to reach about 350 resonance units (RUs). […] The sensor chip was regenerated between cycles with two 30-sec injections of 10 mM glycine, pH 1.5. Sensorgrams were evaluated and fit to a simple Langmuir 1:1 interaction model using the global data analysis option of BIAevaluation 3.0 software. Data quality was verified by visually inspecting deviations and curve fitting, and by evaluating the parameters of Rₘₐₓ, Chi2, and Tc.

[2] = target: T2, wild type full-length cynomolgus monkey TIGIT expressed on CHO cells (cynomolgus monkey, UniProt A0A7N9I9V4 89-312); test: flow cytometry on CHO cells expressing cynomolgus TIGIT, PE anti-human IgG Fc detection
T2 construct: whole, on cells; also called cynomolgus TIGIT-CHO cells

[3] = target: T3, full-length ECD of human TIGIT (His-tagged) (human); test: SPR Biacore T200, Protein A capture, 1:1 model, experiment #2
T3 construct: also called His-tagged human TIGIT; human TIGIT extracellular domain
T3 chain: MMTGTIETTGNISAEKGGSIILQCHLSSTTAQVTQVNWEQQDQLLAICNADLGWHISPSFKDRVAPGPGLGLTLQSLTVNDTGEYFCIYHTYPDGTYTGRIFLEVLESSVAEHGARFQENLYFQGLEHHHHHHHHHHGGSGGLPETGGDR
Method: as §1
as §2, with “Antibodies” for “Multispecific molecules”, “500” for “350”

[4] = target: T4, full-length ECD of cynomolgus monkey TIGIT (His-tagged) (cynomolgus monkey); test: as above
T4 construct: also called His-tagged cynomolgus monkey TIGIT; cyno TIGIT extracellular domain
Method: as §1
as §2, with “Antibodies” for “Multispecific molecules”, “500” for “350”

[5] = target: T2, wild type full-length cynomolgus monkey …; test: flow cytometry on CHO cells expressing cynomolgus TIGIT, PE anti-human IgG Fc detection; remark: listed apart in the source

T2 sequence (A0A7N9I9V4 entry or part of it): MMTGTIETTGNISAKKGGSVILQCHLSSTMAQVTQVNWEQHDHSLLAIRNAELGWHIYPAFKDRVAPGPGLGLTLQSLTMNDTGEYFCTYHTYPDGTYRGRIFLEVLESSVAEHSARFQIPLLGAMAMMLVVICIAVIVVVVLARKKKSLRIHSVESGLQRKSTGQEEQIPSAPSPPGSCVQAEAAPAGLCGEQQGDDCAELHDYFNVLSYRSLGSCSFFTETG

- Kd [1]: 45.3 nM
B1: anti-TIGIT×CD96 multispecific molecule BA123 (bispecific antibody, human IgG1, kappa, lambda)
heavy 1: QVQLVQSGAEVKKPGASVKVSCKASGYTFTSYGISWVRQAPGQGLEWMGWISAYNANTNYAQKLQGRVTMTTDTSTSTAYMELRSLRSDDTAVYYCARSAGVLGGMDVWGRGTLVTVSSASTKGPSVFPLAPSSKSTSGGTAALGCLVKDYFPEPVTVSWNSGALTSGVHTFPAVLQSSGLYSLSSVVTVPSSSLGTQTYICNVNHKPSNTKVDKRVEPKSCDKTHTCPPCPAPELLGGPDVFLFPPKPKDTLMISRTPEVTCVVVDVSHEDPEVKFNWYVDGVEVHNAKTKPREEQYNSTYRVVSVLTVLHQDWLNGKEYKCKVSNKALPAPIEKTISKAKGQPREPQVYTLPPSREEMTKNQVSLSCAVKGFYPSDIAVEWESNGQPENNYKTTPPVLDSDGSFFLVSKLTVDKSRWQQGNVFSCSVMHEALHNHYTQKSLSLSPG
light 1: not shown
heavy 2: EVQLVQSGAEVKKPGSSVKVSCKASGYTFASYGISWVRQAPGQGLEWMGGITPFFNRVDVAEKFQGRVTITADKSTSTAYIELSSLRSEDTAVYYCARDLRRGGVGDAFDIWGRGTLVTVSSASTKGPSVFPLAPSSKSTSGGTAALGCLVKDYFPEPVTVSWNSGALTSGVHTFPAVLQSSGLYSLSSVVTVPSSSLGTQTYICNVNHKPSNTKVDKRVEPKSCDKTHTCPPCPAPELLGGPDVFLFPPKPKDTLMISRTPEVTCVVVDVSHEDPEVKFNWYVDGVEVHNAKTKPREEQYNSTYRVVSVLTVLHQDWLNGKEYKCKVSNKALPLPEEKTISKAKGQPREPQVYTLPPSREEMTKNQVSLWCLVKGFYPSDIAVEWESNGQPENNYKTTPPVLDSDGSFFLYSKLTVDKSRWQQGNVFSCSVMHEALHNHYTQKSLSLSPG
light 2: QSALTQPRSVSGSPGQSVTISCTGTSPDVGSHAYRSWYQQHPGKAPKLMIYEVSYRPSGVSNRFSGSKSGNTASLTISGLQAEDEADYYCSSYPPSSATVFGAGTKLTVLGQPKAAPSVTLFPPSSEELQANKATLVCLISDFYPGAVTVAWKADSSPVKAGVETTTPSKQSNNKYAASSYLSLTPEQWKSHRSYSCQVTHEGSTVEKTVAPTEC
notes: copies: 1 + 1 + 1 + 1

- EC50 (read off the curve) [2]: ~0.2 µg/mL
B2: anti-TIGIT×CD96 multispecific molecule BA127 (bispecific antibody, human IgG1, kappa, lambda)
heavy 1: QVQLVQSGAEVKKPGASVKVSCKASGYTFTTYALHWVRQAPGQRLEWMGWINTGSGDTKYSQKFQGRVTITRDTSASTAYMELSSLRSEDTAVYYCARSLGVYYGMDVWGQGTLVTVSSASTKGPSVFPLAPSSKSTSGGTAALGCLVKDYFPEPVTVSWNSGALTSGVHTFPAVLQSSGLYSLSSVVTVPSSSLGTQTYICNVNHKPSNTKVDKRVEPKSCDKTHTCPPCPAPELLGGPDVFLFPPKPKDTLMISRTPEVTCVVVDVSHEDPEVKFNWYVDGVEVHNAKTKPREEQYNSTYRVVSVLTVLHQDWLNGKEYKCKVSNKALPAPIEKTISKAKGQPREPQVYTLPPSREEMTKNQVSLSCAVKGFYPSDIAVEWESNGQPENNYKTTPPVLDSDGSFFLVSKLTVDKSRWQQGNVFSCSVMHEALHNHYTQKSLSLSPG
light 1: not shown
heavy 2: EVQLVQSGAEVKKPGSSVKVSCKASGYTFASYGISWVRQAPGQGLEWMGGITPFFNRVDVAEKFQGRVTITADKSTSTAYIELSSLRSEDTAVYYCARDLRRGGVGDAFDIWGRGTLVTVSSASTKGPSVFPLAPSSKSTSGGTAALGCLVKDYFPEPVTVSWNSGALTSGVHTFPAVLQSSGLYSLSSVVTVPSSSLGTQTYICNVNHKPSNTKVDKRVEPKSCDKTHTCPPCPAPELLGGPDVFLFPPKPKDTLMISRTPEVTCVVVDVSHEDPEVKFNWYVDGVEVHNAKTKPREEQYNSTYRVVSVLTVLHQDWLNGKEYKCKVSNKALPLPEEKTISKAKGQPREPQVYTLPPSREEMTKNQVSLWCLVKGFYPSDIAVEWESNGQPENNYKTTPPVLDSDGSFFLYSKLTVDKSRWQQGNVFSCSVMHEALHNHYTQKSLSLSPG
light 2: QSALTQPRSVSGSPGQSVTISCTGTSPDVGSHAYRSWYQQHPGKAPKLMIYEVSYRPSGVSNRFSGSKSGNTASLTISGLQAEDEADYYCSSYPPSSATVFGAGTKLTVLGQPKAAPSVTLFPPSSEELQANKATLVCLISDFYPGAVTVAWKADSSPVKAGVETTTPSKQSNNKYAASSYLSLTPEQWKSHRSYSCQVTHEGSTVEKTVAPTEC
notes: Anti-CD96 arm = BA139, anti-TIGIT arm = BA150; copies: 1 + 1 + 1 + 1

- Kd [3]: 0.548 nM
- koff [3]: 0.000422 s⁻¹
- kon [3]: 770000 M⁻¹ s⁻¹
- Kd [4]: 4.06 nM
- koff [4]: 0.00126 s⁻¹
- kon [4]: 310000 M⁻¹ s⁻¹
- EC50 (read off the curve) [5]: ~0.04 µg/mL
B3: anti-TIGIT monospecific antibody BA148 (antibody, human IgG1, lambda)
heavy: EVQLVQSGAEVKKPGSSVKVSCKASGYTFASYGISWVRQAPGQGLEWMGGITPFFNRVDVAEKFQGRVTITADKSTSTAYIELSSLRSEDTAVYYCARDLRRGGVGDAFDIWGRGTLVTVSSASTKGPSVFPLAPSSKSTSGGTAALGCLVKDYFPEPVTVSWNSGALTSGVHTFPAVLQSSGLYSLSSVVTVPSSSLGTQTYICNVNHKPSNTKVDKRVEPKSCDKTHTCPPCPAPELLGGPDVFLFPPKPKDTLMISRTPEVTCVVVDVSHEDPEVKFNWYVDGVEVHNAKTKPREEQYNSTYRVVSVLTVLHQDWLNGKEYKCKVSNKALPLPEEKTISKAKGQPREPQVYTLPPSREEMTKNQVSLTCLVKGFYPSDIAVEWESNGQPENNYKTTPPVLDSDGSFFLYSKLTVDKSRWQQGNVFSCSVMHEALHNHYTQKSLSLSPGK
light: QSALTQPRSVSGSPGQSVTISCTGTSPDVGSHAYRSWYQQHPGKAPKLMIYEVSYRPSGVSNRFSGSKSGNTASLTISGLQAEDEADYYCSSYPPSSATVFGAGTKLTVLGQPKAAPSVTLFPPSSEELQANKATLVCLISDFYPGAVTVAWKADSSPVKAGVETTTPSKQSNNKYAASSYLSLTPEQWKSHRSYSCQVTHEGSTVEKTVAPTEC
notes: IgG1; also called anti-TIGIT IgG1 antibody BA148
